This passage reports interaction score results from paper PMC10397247.

What all share (test): two-hybrid library CCmax;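 also: natural log of median RNA to DNA barcode read ratio; higher means stronger binding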
One assay concerns the target T1, 4H3605-AA.
T1 chain: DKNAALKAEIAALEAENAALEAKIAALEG
The settings on record: mean of both orientations.

A further assay addresses T2, 4H2614-AA.
T2 chain: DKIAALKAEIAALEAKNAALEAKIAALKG

For the next assay, the target named is T3, 4H3664-AA.
T3 chain: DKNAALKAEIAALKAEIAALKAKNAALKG
The settings on record: mean of both orientations.

The next assay addresses T4, 4H3922-AA.
T4 chain: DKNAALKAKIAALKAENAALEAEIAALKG
The settings on record: mean of both orientations.

In the next assay the target is T5, 4H369-AA.
T5 chain: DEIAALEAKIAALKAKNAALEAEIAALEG
The settings on record: mean of both orientations.

In the next assay the target is T6, 4H662-AA.
T6 chain: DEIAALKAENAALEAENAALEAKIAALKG
The settings on record: mean of both orientations.

The target of a further assay is T7, 4H2726-AA.
T7 chain: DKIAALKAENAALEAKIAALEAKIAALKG
The settings on record: mean of both orientations.

In the next assay the target is T8, 4H3625-AA.
T8 chain: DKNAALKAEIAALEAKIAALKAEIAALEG
The settings on record: mean of both orientations.

A further assay concerns the target T9, 4H481-AA.
T9 chain: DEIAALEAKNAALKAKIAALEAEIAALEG
The settings on record: mean of both orientations.

Another assay concerns the target T10, 4H4033-AA.
T10 chain: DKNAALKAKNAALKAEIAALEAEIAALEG
The settings on record: mean of both orientations.

The next assay has as its target T11, 4H327-AA.
T11 chain: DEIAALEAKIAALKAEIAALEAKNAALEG
The settings on record: mean of both orientations.

The target in the next assay is T12, 4H2935-AA.
T12 chain: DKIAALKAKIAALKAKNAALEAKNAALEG
The settings on record: mean of both orientations.

In a further assay the target is T13, 4H55-AA.
T13 chain: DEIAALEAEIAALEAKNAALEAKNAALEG
The settings on record: mean of both orientations.

The target in another assay is T14, P2-AA-1HGe-A.
T14 chain: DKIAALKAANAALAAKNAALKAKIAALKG
The settings on record: mean of both orientations.

The target of the next assay is T15, P2-AA-1HGe-M.
T15 chain: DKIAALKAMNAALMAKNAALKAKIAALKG
The settings on record: mean of both orientations.

For another assay, the target named is T16, P2-AA-1HGe-T.
T16 chain: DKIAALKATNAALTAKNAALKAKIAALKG

In the next assay the target is T17, P2-AA-1HGe-Q.
T17 chain: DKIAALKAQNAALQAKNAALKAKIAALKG
The settings on record: mean of both orientations.

For another assay, the target named is T18, P2-AA.
T18 chain: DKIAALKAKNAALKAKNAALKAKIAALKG
The settings on record: mean of both orientations.

Another assay concerns the target T19, P2-AA-1HGe-D.
T19 chain: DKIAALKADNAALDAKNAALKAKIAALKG
The settings on record: mean of both orientations.

Another assay has as its target T20, 4H3162-AA.
T20 chain: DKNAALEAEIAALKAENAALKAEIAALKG
The settings on record: mean of both orientations.

Another assay addresses T21, 4H1874-AA.
T21 chain: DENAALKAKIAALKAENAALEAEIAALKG

A further assay addresses T22, 4H3718-AA.
T22 chain: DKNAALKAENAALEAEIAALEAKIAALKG
The settings on record: mean of both orientations.

The target in another assay is T23, 4H982-AA.
T23 chain: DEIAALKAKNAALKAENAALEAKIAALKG
The settings on record: mean of both orientations.

A further assay deals with T24, 4H2648-AA.
T24 chain: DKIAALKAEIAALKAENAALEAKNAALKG
The settings on record: mean of both orientations.

The target in the next assay is T25, 4H697-AA.
T25 chain: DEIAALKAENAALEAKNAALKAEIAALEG
The settings on record: mean of both orientations.

Another assay has as its target T26, 4H2198-AA.
T26 chain: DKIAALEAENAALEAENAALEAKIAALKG
The settings on record: mean of both orientations.

The target of the next assay is T27, 4H340-AA.
T27 chain: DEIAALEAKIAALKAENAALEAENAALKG
The settings on record: mean of both orientations.

The target of another assay is T28, 4H3631-AA.
T28 chain: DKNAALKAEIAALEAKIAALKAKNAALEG
The settings on record: mean of both orientations.

A further assay addresses T29, 4H3588-AA.
T29 chain: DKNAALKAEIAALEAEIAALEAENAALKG
The settings on record: mean of both orientations.

In the next assay the target is T30, 4H3378-AA.
T30 chain: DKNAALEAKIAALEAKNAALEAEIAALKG
The settings on record: mean of both orientations.

A further assay has as its target T31, 4H3606-AA.
T31 chain: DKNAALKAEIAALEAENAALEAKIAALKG
The settings on record: mean of both orientations.

A further assay concerns the target T32, 4H3697-AA.
T32 chain: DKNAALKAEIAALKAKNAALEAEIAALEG
The settings on record: mean of both orientations.

The next assay deals with T33, 4H3056-AA.
T33 chain: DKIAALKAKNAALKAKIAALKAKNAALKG
The settings on record: mean of both orientations.

The next assay concerns the target T34, 4H2553-AA.
T34 chain: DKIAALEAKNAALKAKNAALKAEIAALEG
The settings on record: mean of both orientations.

Another assay addresses T35, 4H384-AA.
T35 chain: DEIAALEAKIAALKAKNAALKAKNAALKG
The settings on record: mean of both orientations.

A further assay deals with T36, 4H3413-AA.
T36 chain: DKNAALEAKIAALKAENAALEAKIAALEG
The settings on record: mean of both orientations.

The target in a further assay is T37, 4H2611-AA.
T37 chain: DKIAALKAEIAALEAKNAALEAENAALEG
The settings on record: mean of both orientations.

A further assay deals with T38, 4H32-AA.
T38 chain: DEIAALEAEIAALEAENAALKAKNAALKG
The settings on record: mean of both orientations.

Another assay has as its target T39, 4H2907-AA.
T39 chain: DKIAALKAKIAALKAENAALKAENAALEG
The settings on record: mean of both orientations.

For the next assay, the target named is T40, 4H3865-AA.
T40 chain: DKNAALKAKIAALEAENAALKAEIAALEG
The settings on record: mean of both orientations.

For the next assay, the target named is T41, 4H2620-AA.
T41 chain: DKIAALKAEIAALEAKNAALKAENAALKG
The settings on record: mean of both orientations.

For the next assay, the target named is T42, 4H3133-AA.
T42 chain: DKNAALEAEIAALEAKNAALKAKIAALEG
The settings on record: mean of both orientations.

Read-outs that look alike come from different tables or passages of the source.

As to DKIAALKAEIAALEAKNAALEAKIAALKG [4H2614-AA], the interaction score with 4H3605-AA was -0.49; with 4H2614-AA it was 1.46; with 4H3664-AA it was -1.11; with 4H3922-AA, 0.659; with 4H369-AA, 2.41; with 4H662-AA it was -1.17. The interaction score with 4H2726-AA is -0.336; in the assay with 4H3625-AA, 0.314; with 4H481-AA, 1.06; with 4H4033-AA it was -1.43; in the assay with 4H327-AA, -0.0398; in the assay with 4H2935-AA, 0.084. Moreover, the interaction score with 4H55-AA is -0.185.
For DEIAALEADNAALDAENAALEAEIAALEG [P1-AA-1HGe-D], the interaction score amounted to 1.58 with P2-AA-1HGe-A; 1.74 in the assay with P2-AA-1HGe-M; 1.92 in the assay with P2-AA-1HGe-T (mean of both orientations); 2.03 with P2-AA-1HGe-Q; 1.91 with P2-AA; 0.303 with P2-AA-1HGe-D.
For the molecule DENAALKAKIAALKAENAALEAEIAALKG [4H1874-AA], the interaction score in the assay with 4H3162-AA is 1.38; with 4H1874-AA, 1.18; with 4H3718-AA, -1.5; with 4H982-AA, -1.36; with 4H2648-AA, -1.44; in the assay with 4H697-AA it was 1.47. For the same molecule, the interaction score is -1.15 with 4H2198-AA; -1.94 with 4H340-AA; -1.14 with 4H3631-AA; -1.22 in the assay with 4H3588-AA; -0.221 in the assay with 4H3378-AA; 2.08 in the assay with 4H3606-AA. Also, the interaction score in the assay with 4H3697-AA is -0.269; with 4H3056-AA, -0.229; in the assay with 4H2553-AA, -1.21; with 4H384-AA it was -0.973; in the assay with 4H3413-AA it was -1.35; with 4H2611-AA, -1.33. Moreover, the interaction score was 1.23 with 4H32-AA; -1.61 in the assay with 4H2907-AA; 1.13 with 4H3865-AA; 1.59 with 4H2620-AA; 1.46 in the assay with 4H3133-AA.
On to DEIAALEAQNAALQAENAALEAEIAALEG [P1-AA-1HGe-Q], for which the interaction score is 2.14 in the assay with P2-AA-1HGe-A; 2.05 in the assay with P2-AA-1HGe-M; 2.21 in the assay with P2-AA-1HGe-T (mean of both orientations); 2.11 with P2-AA-1HGe-Q; 1.75 with P2-AA; 1.67 with P2-AA-1HGe-D.
Take DEIAALEARNAALRAENAALEAEIAALEG [P1-AA-1HGe-R]: the interaction score worked out at 1.97 with P2-AA-1HGe-A; 1.7 in the assay with P2-AA-1HGe-M; 2.2 with P2-AA-1HGe-T (mean of both orientations); 2.26 with P2-AA-1HGe-Q; 1.49 in the assay with P2-AA; 1.67 with P2-AA-1HGe-D.
For the molecule DEIAALEATNAALTAENAALEAEIAALEG [P1-AA-1HGe-T], the interaction score with P2-AA-1HGe-A worked out at 2.18; with P2-AA-1HGe-M, 1.53; with P2-AA-1HGe-T (mean of both orientations), 2; in the assay with P2-AA-1HGe-Q it was 2.05; with P2-AA, 2.07; with P2-AA-1HGe-D, 1.17.
As for DEIAALEASNAALSAENAALEAEIAALEG [P1-AA-1HGe-S], the interaction score with P2-AA-1HGe-A worked out at 1.81; with P2-AA-1HGe-M, 2.01; with P2-AA-1HGe-T, 2.01; in the assay with P2-AA-1HGe-Q, 2.06; with P2-AA, 2.03; in the assay with P2-AA-1HGe-D it was 1.63.
